Measured values: patent US20240101674A1 (OTTIMO PHARMA, published 2024)

What was measured:
[1] = target: T1, biotinylated human PD1-His/AviTag (human, UniProt Q15116 25-170, limits assumed, biotinylated); test: Alphascreen epitope competition, Fab periprep; competitor hMAb005 IgG1 null on biotinylated human PD1-His/AviTag
T1 construct: also called human PD1 protein (Alphascreen); not shown: His/AviTag
Method: FIG. 2A-FIG. 2B. Epitope competition analysis of Fab proteins in Alphascreen Anti-PD1 clones were expressed as Fab in E. coli and peripreps were applied in an epitope competition assay using Alphascreen technology.
The AlphaScreen assay (Perkin Elmer) was performed in a 25 μl final volume in 384-well white microtiter plates (Greiner). The reaction buffer contained 1×PBS pH 7.3 (Oxoid, Cat. nr. BR0014G) and 0.05% (v/v) Tween® 20 (Sigma, Cat. nr. P9416). Periprep samples diluted in reaction buffer were incubated with biotinylated human PD1-His/AviTag at 0.6 nM final concentration for 20 minutes at room temperature. […] The emission of light was measured in the EnVision multilabel plate reader (Perkin Elmer) and analysed using the EnVision manager software. Values were reported as Counts Per Second (CPS) and corrected for crosstalk. Signal reduction percentages were calculated relative to the irrelevant sample.

human VEGFR2 protein [2] = target: T2, human VEGFR2 protein (human, UniProt P35968 20-764); test: periprep Fab direct binding ELISA (FIG. 1)
T2 construct: Recombinant protein used in ELISA; also called hu VEGFR2; KDR

[3] = target: T3, cynomolgus monkey PD1 human Fc tagged recombinant protein (cynomolgus monkey, UniProt Q15116 25-170 (human entry), limits assumed); test: periprep Fab direct binding ELISA (FIG. 1)
T3 construct: also called cyno PD1-Fc; cyno PD1; not shown: human Fc tag
T3 chain: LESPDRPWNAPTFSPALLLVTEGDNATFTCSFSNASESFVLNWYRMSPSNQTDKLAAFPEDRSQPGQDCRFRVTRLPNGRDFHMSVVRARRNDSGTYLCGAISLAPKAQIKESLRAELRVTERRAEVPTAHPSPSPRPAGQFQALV

rhesus VEGFR2 protein = target: T4, rhesus VEGFR2 protein (rhesus monkey); test: periprep Fab direct binding ELISA (FIG. 1)
T4 construct: Recombinant protein used in ELISA; also called rhesus monkey VEGFR2; rh VEGFR2
T4 chain: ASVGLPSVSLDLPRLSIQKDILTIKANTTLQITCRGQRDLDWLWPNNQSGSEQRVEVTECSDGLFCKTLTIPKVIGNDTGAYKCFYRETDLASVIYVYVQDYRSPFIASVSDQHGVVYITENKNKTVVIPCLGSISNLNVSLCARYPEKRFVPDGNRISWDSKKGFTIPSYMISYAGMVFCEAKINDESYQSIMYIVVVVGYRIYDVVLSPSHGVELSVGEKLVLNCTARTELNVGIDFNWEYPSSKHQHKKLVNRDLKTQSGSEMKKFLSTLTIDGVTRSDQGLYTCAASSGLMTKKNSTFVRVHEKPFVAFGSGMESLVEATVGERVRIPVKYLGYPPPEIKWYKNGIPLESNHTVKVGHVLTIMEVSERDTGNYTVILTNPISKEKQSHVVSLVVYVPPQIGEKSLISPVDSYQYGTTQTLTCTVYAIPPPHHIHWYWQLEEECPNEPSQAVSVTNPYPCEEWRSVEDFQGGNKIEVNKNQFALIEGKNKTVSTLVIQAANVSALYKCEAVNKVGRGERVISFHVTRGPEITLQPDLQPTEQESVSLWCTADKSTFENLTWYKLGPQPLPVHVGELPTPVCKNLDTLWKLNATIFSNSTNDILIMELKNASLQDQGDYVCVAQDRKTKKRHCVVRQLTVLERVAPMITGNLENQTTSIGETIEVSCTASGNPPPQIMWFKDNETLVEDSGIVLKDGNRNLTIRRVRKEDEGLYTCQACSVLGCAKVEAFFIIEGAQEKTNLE

[4] = target: T5, human PD1 human Fc tagged recombinant protein (human, UniProt Q15116 25-170); test: periprep Fab direct binding ELISA (FIG. 1)
T5 construct: also called human PD1-Fc; hu PD1; not shown: human Fc tag

human VEGFR2 protein [5] = target: T2, human VEGFR2 protein; test: direct titration ELISA, IgG1 null on VEGFR2 protein (FIG. 12C)

T1 sequence (Q15116 25-170 limits assumed): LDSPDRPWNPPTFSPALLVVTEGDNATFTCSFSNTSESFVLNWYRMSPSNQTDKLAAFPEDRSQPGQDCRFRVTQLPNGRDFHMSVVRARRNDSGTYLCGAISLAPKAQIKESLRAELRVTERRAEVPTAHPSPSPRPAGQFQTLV
T5 sequence (Q15116 25-170 limits assumed): as above

B1: MAB02A03 Fab (Fab, V domains shown)
VH: EVQLVESGGGLVQPGGSLRLSCAASGFTFSSYMMSWVRQAPGKGLEWVATISGGGANTYYPDSVKGRFTISRDNAKNSLYLQMNSLRAEDTAVYYCARQLYYFDYWGQGTTVTVSS
VL: DIQMTQSSSSLSASVGDRVTITCLASQGIGPWLSWYQQKPGKAPKLLIYTATSLADGVPSRFSGSGSGTDFTLTISSLQPEDFATYYCQQVYSIPWTFGGGTKVEIK
notes: Library-derived clone screened as human IgG1-kappa Fab in E. coli periplasmic extract; also called MAB02A03 (periprep Fab)
[1]
  percentage signal reduction of hMAb005/PD1 interaction: 75%
Human VEGFR2 protein [2]
  binding result: binds
[3]
  binding result: binds
Rhesus VEGFR2 protein
  binding result: binds

B2: hMAb005 Fab (Fab, V domains shown)
VH: EVQLVESGGGLVQPGGSLRLSCAASGFTFSSYMMSWVRQAPGKGLEWVATISGGGANTYYPDSVKGRFTISRDNAKNSLYLQMNSLRAEDTAVYYCARQLYYFDYWGQGTTVTVSS
VL: DIQMTQSPSSLSASVGDRVTITCLASQTIGTWLTWYQQKPGKAPKLLIYTATSLADGVPSRFSGSGSGTDFTLTISSLQPEDFATYYCQQVYSIPWTFGGGTKVEIK
notes: Human IgG1-kappa Fab, periplasmically expressed in E. coli, detected via c-myc; also called hMAb005 v-domains expressed as human IgG1 Fab; positive control hMAb005 Fab
[3]
  binding result: binds
[4]
  binding result: binds

B3: MAB06.8.6 IgG1 null (antibody, V domains shown)
VH: EVQLVESGGGLVQPGGSLRLSCAASGFTFSSYLMSWVRQAPGKGLEWVATISGGGSNKYYVDSVKGRFTISRDNAKNSLYLQMNSLRAEDTAVYYCARQLYYYDYWGQGTTVTVSS
VL: DIQMTQSPSSLSASVGDRVTITCRASQESGIWLSWYQQKPGKAPKLLIYAASSLQSGVPSRFSGSGSGTDFTLTISSLQPEDFATYYCQQVSVTPFTFGGGTKVEIK
notes: Human IgG1 null format; only variable domains are tied to the clone
Human VEGFR2 protein [5]
  binding result: binds

B4: MAB06.8.2 IgG1 null (antibody, V domains shown)
VH: EVQLVESGGGLVQPGGSLRLSCAASGFTFSSYLMSWVRQAPGKGLEWVATISGGGSNKYYVDSVKGRFTISRDNAKNSLYLQMNSLRAEDTAVYYCARQVYYFDYWGQGTTVTVSS
VL: DIQMTQSPSSLSASVGDRVTITCRASQESGIWLSWYQQKPGKAPKLLIYAASSLQSGVPSRFSGSGSGTDFTLTISSLQPEDFATYYCQQVSVTPFTFGGGTKVEIK
notes: as for B3
Human VEGFR2 protein [5]
  binding result: binds

B5: MAB05E08 Fab (Fab, V domains shown)
VH: EVQLVESGGGLVQPGGSLRLSCAASGFTFSSYMMSWVRQAPGKGLEWVATISGGGANTYYPDSVKGRFTISRDNAKNSLYLQMNSLRAEDTAVYYCARQLYYFDYWGQGTTVTVSS
VL: DIQMTQSPSSLSASVGDRVTITCLASQTIGTWLTWYQQKPGKAPKLLIYTATSLADGVPSRFSGSGSGTDFTLTISSLQPEDFATYYCQQVSVTPFTFGGGTKVEIK
notes: Library-derived clone screened as human IgG1-kappa Fab in E. coli periplasmic extract; also called MAB05E08 (periprep Fab)
[1]
  percentage signal reduction of hMAb005/PD1 interaction: > 75%
Human VEGFR2 protein [2]
  binding result: binds
[3]
  binding result: binds
Rhesus VEGFR2 protein
  binding result: binds

B6: MAB02B03 Fab (Fab, V domains shown)
VH: EVQLVESGGGLVQPGGSLRLSCAASGFTFSSYMMSWVRQAPGKGLEWVATISGGGANTYYPDSVKGRFTISRDNAKNSLYLQMNSLRAEDTAVYYCARQLYYFDYWGQGTTVTVSS
VL: DIQMTQSPSSLSASVGDRVTITCLASQPLGIWLSWYQQKPGKAPKLLIYTATSLADGVPSRFSGSGSGTDFTLTISSLQPEDFATYYCQQVYSIPWTFGGGTKVEIK
notes: Library-derived clone screened as human IgG1-kappa Fab in E. coli periplasmic extract; also called MAB02B03 (periprep Fab)
[1]
  percentage signal reduction of hMAb005/PD1 interaction: > 75%
Human VEGFR2 protein [2]
  binding result: binds
[3]
  binding result: binds
Rhesus VEGFR2 protein
  binding result: binds

B7: MAB05G03 Fab (Fab, V domains shown)
VH: EVQLVESGGGLVQPGGSLRLSCAASGFTFSSYMMSWVRQAPGKGLEWVATISGGGANTYYPDSVKGRFTISRDNAKNSLYLQMNSLRAEDTAVYYCARQLYYFDYWGQGTTVTVSS
VL: DIQMTQSPSSLSASVGDRVTITCLASQTIGTWLTWYQQKPGKAPKLLIYTATSLADGVPSRFSGSGSGTDFTLTISSLQPEDFATYYCQQVAELPFGFGGGTKVEIK
notes: Library-derived clone screened as human IgG1-kappa Fab in E. coli periplasmic extract; also called MAB05G03 (periprep Fab)
[1]
  percentage signal reduction of hMAb005/PD1 interaction: > 75%
Human VEGFR2 protein [2]
  binding result: binds
[3]
  binding result: binds
Rhesus VEGFR2 protein
  binding result: binds
